Laboratory results as given in the RNAGym collection of RNA variant scans (doi:10.7554/elife.80360).

B1: Hairpin Ribozyme (parent)
chain: GUCCUCUUUCACGUGCGCGUGAAAGAGAGAAGUGAACCAGAGAAACACACGUUGUGGUAUAUUACCUGGUA

Variants of: B1
Assay: self-cleavage, relative activity (ratio to wild type); higher = more cleavage; co-transcriptional

Variant | self-cleavage
C46U C66U | 0.149
C46U U53G | 0.216
C46U U53A | 0.215
C46G U60G | 0.151
C46G U60A | 0.091
A47C U62G | 0.227
C48G A59C | 0.119
A45C U60C | 0.293
A49C U58C | 0.316
A49C U58G | 0.286
C46G U62A | 0.148
C48A U60A | 0.134
C46G A61G | 0.126
C46G A61U | 0.157
A49G C66U | 0.258
C48G U53A | 0.101
C48G U53C | 0.206
C48G U52G | 0.225
A49C A61U | 0.104
C48U U53C | 0.233
A49C A64U | 0.178
A47C A61U | 0.137
C46A G69A | 0.13
A47U U63C | 0.175

Variant | self-cleavage
C46G A47C | 0.125
C46G A47G | 0.136
A45G U52G | 0.0854
A47G U58C | 0.17
A45G U63C | 0.0324
A45G U63G | 0.226
C46U U62G | 0.237
C46U U62C | 0.213
A47U G69A | 0.107
A47U G69U | 0.138
C48A G56C | 0.131
A45U G69U | 0.197
A49C G51A | 0.0757
C48G G57C | 0.169
A49C U55G | 0.343
A49C U55C | 0.273
A49C U52C | 0.16
A47G U52C | 0.124
C48G U60A | 0.121
C48G U60G | 0.108
C46A G51A | 0.215
C46A G51U | 0.146
A47C U60C | 0.418
A45G U67A | 0.0776

Variant | self-cleavage
A45C U52G | 0.0239
A45C U52C | 0.176
C46A G57U | 0.123
C46A A59C | 0.3
C46A A59U | 0.109
A47U U62A | 0.114
A47G U60G | 0.0656
A47G U55A | 0.184
A47G U55G | 0.139
C46G C48U | 0.156
C46G C48A | 0.204
C46U A49U | 0.239
C46U A49G | 0.24
A45C G57C | 0.105
A45U G54U | 0.0699
A45U G54C | 0.23
A45U G54A | 0.138
C46G U53C | 0.0868
C46G U53A | 0.0595
A45U U52A | 0.122
C48U G57U | 0.204
C48U G57C | 0.163
A49G U67A | 0.208
A47U G56U | 0.148

Variant | self-cleavage
A45C G68C | 0.119
C48G G69A | 0.224
C48G G69U | 0.0941
C48G G69C | 0.0597
C48A G69C | 0.135
A47U U52C | 0.0664
C46A G56U | 0.077
C46U G54U | 0.179
C46A G54U | 0.307
C48U G54C | 0.129
C48U G54U | 0.203
C48U G54A | 0.163
A45C U67G | 0.0812
C46U A61G | 0.129
C46U A61C | 0.0903
A45G A49C | 0.103
A47U C50U | 0.171
C48G U63C | 0.0816
A47G A49U | 0.0814
A45G U53A | 0.234
A45U C50G | 0.146
A47C C65G | 0.203
C48G A61U | 0.0929
C46A U58A | 0.198

Variant | self-cleavage
C46A U58G | 0.158
A45U U62A | 0.149
A45U U62G | 0.178
A47G U63A | 0.211
A47G U63G | 0.0332
C46G G68U | 0.19
C46G G68A | 0.123
A47G A59G | 0.196
A47U C65G | 0.139
A47U C65A | 0.0949
A49C U63A | 0.0427
A49C U63G | 0.153
A49G C65G | 0.184
A49G C65U | 0.107
C46G A59U | 0.13
A45U A64C | 0.18
C46U U70C | 0.161
C48G A49G | 0.123
C48G A49U | 0.104
C48A G57A | 0.121
A47C G51C | 0.377
C46U C50G | 0.0749
A45G C50U | 0.174
A45G C50A | 0.123

Variant | self-cleavage
A49G U63G | 0.158
C48U U52A | 0.138
C48U U52G | 0.311
C46U C65G | 0.087
A45G U70C | 0.0703
A45G C66G | 0.122
A45G C66A | 0.176
C46U G68A | 0.0828
C46U G68U | 0.119
A45U G57A | 0.17
A45G G68A | 0.122
A45G G68U | 0.223
A47G A64C | 0.0744
A47G A64G | 0.0949
A45G U58A | 0.174
A47U U55A | 0.161
A49C C65A | 0.225
A49C C65G | 0.168
A47U C48G | 0.137
A49G A61C | 0.0946
A45G C46A | 0.17
A45G C46U | 0.223
C46U U52C | 0.215
C46A A47C | 0.0767

Variant | self-cleavage
C48A G54A | 0.169
C48U U55C | 0.132
C48U C66U | 0.194
C48U C66G | 0.138
C46G A49C | 0.13
C48G U70C | 0.302
C48A A49C | 0.155
C48A A49U | 0.172
C48A A49G | 0.215
A49G U55C | 1.17
A49G U55G | 0.498
C48G C66G | 0.105
A49G | 0.57
A49C | 0.161
A49U | 0.179
A45C U53G | 0.138
C46G C50U | 0.185
A45G G56C | 0.0912
A47C U70G | 0.272
C48G U58C | 0.143
C46U G56A | 0.138
C46U G56C | 0.204
C46G U63A | 0.279
